A word on the stoichiometry N: it is the number of molecules, sites or subunits per partner or assembly.

The target of the test is mGFP-UvrD (genomically integrated) (E. coli) (UniProt P03018). Kind of test: single-molecule fluorescence microscopy.

Substance “mGFP-UvrD (genomically integrated) (from UniProt P03018 1-720) (enzyme)” returned a stoichiometry N of 4.

Values taken from doi:10.1101/2021.02.22.432310.
